In publication PMC10163261 one finds other: bond lifetime data, which are given here for five substances.

The target of one experiment is 3.L2 TCR. The experiment in a line: bond lifetime vs force measurement (method not named for this panel). The note with it: solid fitted curve (TCR-pMHC-II model) read at force = 10 pN; TCR on CD4-CD8+ naive T cells; parent: est. 2.3; read off a plot.
The target in a further experiment is K5:I-E^k (UniProt P04230). The experiment in a line: BFP force-dependent bond lifetime measurement. The note with it: solid fitted curve (TCR-pMHC-II model) read at force = 10 pN; TCR on hybridomas; parent: est. 1.6; read off a plot.
UniProt P04230, sequence (P04230 whole entry, looked up): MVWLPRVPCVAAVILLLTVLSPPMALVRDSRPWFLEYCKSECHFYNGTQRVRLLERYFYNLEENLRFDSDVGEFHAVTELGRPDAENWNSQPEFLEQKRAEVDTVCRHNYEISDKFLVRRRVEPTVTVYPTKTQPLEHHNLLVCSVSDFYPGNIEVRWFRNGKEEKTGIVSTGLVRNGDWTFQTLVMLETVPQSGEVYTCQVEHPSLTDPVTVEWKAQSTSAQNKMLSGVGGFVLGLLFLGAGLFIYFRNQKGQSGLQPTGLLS

In the case of Hb:I-Ek T72, in the experiment with 3.L2 TCR, the other: bond lifetime worked out at 1.1 s.

Consider “hybrid 2B4 TCR with its mouse Vαβ fused with the Cαβ of the human LC13 (WT) (from UniProt P01848) β:G182A; β:K183A”, for which the other: bond lifetime with K5:I-E^k was 1.3 s.

As to “hybrid 2B4 TCR with its mouse Vαβ fused with the Cαβ of the human LC13 (WT) (from UniProt P01848) β:H221A; β:N222A”, the other: bond lifetime with K5:I-E^k is 0.38 s.

For “hybrid 2B4 TCR with its mouse Vαβ fused with the Cαβ of the human LC13 (WT) (from UniProt P01848) β:N222A; β:P223A”, the other: bond lifetime in the experiment with K5:I-E^k is 2.2 s.

As to “hybrid 2B4 TCR with its mouse Vαβ fused with the Cαβ of the human LC13 (WT) (from UniProt P01848) β:N225A; β:H226A”, in the experiment with K5:I-E^k, the other: bond lifetime came to 0.15 s.
